B1: baculovirus-expressed S. purpuratus katanin p60 subunit with N-terminal His(6) tag (protein)
chain: HHHHHHMSVDEICENTKMGREYALLGNYETSLVYYQGVLQQIQKLLTSVHEPQRKHQWQTIRQELSQEYEHVKNITKTLNGFKSEPAAPEPAPNHRAAPFSHHQHAAKPAAAEPARDPDVWPPPTPVDHRPSPPYQRAARKDPPRRSEPSKPANRAPGNDRGGRGPSDRRGDARSGGGGRGGARGSDKDKNRGGKSDKDKKAPSGEEGDEKKFDPAGYDKDLVENLERDIVQRNPNVHWADIAGLTEAKRLLEEAVVLPLWMPDYFKGIRRPWKGVLMVGPPGTGKTMLAKAVATECGTTFFNVSSASLTSKYHGESEKLVRLLFEMARFYAPSTIFIDEIDSICSKRGTGSEHEASRRVKSELLIQMDGVSGPSAGEESSKMVMVLAATNFPWDIDEALRRRLEKRIYIPLPEIDGREQLLRINLKEVPLADDIDLKSIAEKMDGYSGADITNVCRDASMMAMRRRIQGLRPEEIRHIPKEELNQPSTPADFLLALQKVSKSVGKEDLVKYMAWMEEFGSV
B2: co-expressed recombinant p60/p80 katanin heterodimer (baculovirus, both subunits with N-terminal His(6) tag) (protein)
chain 1: B1 chain
chain 2: HHHHHHMATKRAWKLQELVAHSSNVNCLALGPMSGRVMVTGGEDKKVNLWAVGKQNCIISLSGHTSPVDSVKFNSSEELVVAGSQSGTMKIYDLEPAKIVRTLTGHRNSIRCMDFHPFGEFVASGSTDTNVKLWDVRRKGCIYTYKGHSDQVNMIKFSPDGKWLVTASEDTTIKLWDLTMGKLFQEFKNHTGGVTGIEFHPNEFLLASGSSDRTVQFWDLETFQLVSSTSPGASAVRSISFHPDGSYLFCSSQDMLHAFGWEPIRCFDTFSVGWGKVADTVIASTQLIGASFNATNVSVYVADLSRMSTTGIAQEPQSQPSKTPSGGAEEVPSKPLTASGRKNFVRERPHTTSSKQRQPDVKSEPERQSPTQDEGVKDDDATDIKDPDSYAKIFSPKTRVDHSPERNAQPFPAPLDVPGAQEPEPFKHPPKPAAAAAVAPVSRAPAPSASDWQPAQANPAPNRVPAATKPVPAQEVAPSRKPDPISTIIPSDRNKPANLDMDAFLPPAHAQQAPRVNAPASRKQSDSERIEGLRKGHDSMCQVLSSRHRNLDVVRAIWTAGDAKTSVESVVNMKDQAILVDILNIMLLKKSLWNLDMCVVVLPRLKELLSSKYENYVHTSCACLKLILKNFTSLFNQNIKCPPSGIDITREERYNKCSKCYSYLIATRGYVEEKQHVSGKLGSSFRELHLLLDQLE

Molecular target: microtubules prepared from bovine brain tubulin (taxol-stabilized)

Protein | ATPase activity (malachite green) | maximal basal and microtubule-stimulated ATPase rates relative to p60/p80 | microtubule concentration at peak ATPase stimulation | microtubule severing (fluorescence microscopy assay) | rate of microtubule disassembly (DAPI fluorescence assay) | ATPase activity (malachite green), stimulation by microtubules | maximal microtubule-stimulated ATPase rate
B1 | p60 alone displayed a microtubule-stimulated ATPase activity | only 2-fold lower than those of the p60/p80 heterodimer | peak at ˜2 µM tubulin | Both p60 and p60/p80 severed microtubules in this assay | p60 was half as active as p60/p80 | – | –
B2 | – | – | peak at ˜2 µM tubulin | Both p60 and p60/p80 severed microtubules in this assay | – | this activity was stimulated ˜10-fold by microtubules | maximal microtubule-stimulated rate of 3 ATP/katanin/sec

Source: US6429304
